What all share (test): scFv-phage ELISA
On the technique in general: An ELISA detects its analyte on a solid surface through an enzyme-linked reagent.

One test has as its target T1, M1.
T1 construct: also called PD1 mutant M1

A further test deals with T2, M14.
T2 construct: also called PD1 mutant M14

The next test has as its target T3, M1-1.
T3 construct: also called PD1 mutant M1-1

The target in the next test is T4, M2-1.
T4 construct: also called PD1 mutant M2-1

Another test concerns the target T5, M5-2.
T5 construct: also called PD1 mutant M5-2

The target of another test is T6, M8.
T6 construct: also called PD1 mutant M8

In the next test the target is T7, M4.
T7 construct: also called PD1 mutant M4

A further test addresses T8, M6.
T8 construct: also called PD1 mutant M6

A further test concerns the target T9, M7-2.
T9 construct: also called PD1 mutant M7-2

For a further test, the target named is T10, M7.
T10 construct: also called PD1 mutant M7

In another test the target is T11, M2.
T11 construct: also called PD1 mutant M2

The target in another test is T12, ITGA6-Fc.
T12 construct: Fc fusion
T12 sequence (P23229 whole entry, species assumed, looked up): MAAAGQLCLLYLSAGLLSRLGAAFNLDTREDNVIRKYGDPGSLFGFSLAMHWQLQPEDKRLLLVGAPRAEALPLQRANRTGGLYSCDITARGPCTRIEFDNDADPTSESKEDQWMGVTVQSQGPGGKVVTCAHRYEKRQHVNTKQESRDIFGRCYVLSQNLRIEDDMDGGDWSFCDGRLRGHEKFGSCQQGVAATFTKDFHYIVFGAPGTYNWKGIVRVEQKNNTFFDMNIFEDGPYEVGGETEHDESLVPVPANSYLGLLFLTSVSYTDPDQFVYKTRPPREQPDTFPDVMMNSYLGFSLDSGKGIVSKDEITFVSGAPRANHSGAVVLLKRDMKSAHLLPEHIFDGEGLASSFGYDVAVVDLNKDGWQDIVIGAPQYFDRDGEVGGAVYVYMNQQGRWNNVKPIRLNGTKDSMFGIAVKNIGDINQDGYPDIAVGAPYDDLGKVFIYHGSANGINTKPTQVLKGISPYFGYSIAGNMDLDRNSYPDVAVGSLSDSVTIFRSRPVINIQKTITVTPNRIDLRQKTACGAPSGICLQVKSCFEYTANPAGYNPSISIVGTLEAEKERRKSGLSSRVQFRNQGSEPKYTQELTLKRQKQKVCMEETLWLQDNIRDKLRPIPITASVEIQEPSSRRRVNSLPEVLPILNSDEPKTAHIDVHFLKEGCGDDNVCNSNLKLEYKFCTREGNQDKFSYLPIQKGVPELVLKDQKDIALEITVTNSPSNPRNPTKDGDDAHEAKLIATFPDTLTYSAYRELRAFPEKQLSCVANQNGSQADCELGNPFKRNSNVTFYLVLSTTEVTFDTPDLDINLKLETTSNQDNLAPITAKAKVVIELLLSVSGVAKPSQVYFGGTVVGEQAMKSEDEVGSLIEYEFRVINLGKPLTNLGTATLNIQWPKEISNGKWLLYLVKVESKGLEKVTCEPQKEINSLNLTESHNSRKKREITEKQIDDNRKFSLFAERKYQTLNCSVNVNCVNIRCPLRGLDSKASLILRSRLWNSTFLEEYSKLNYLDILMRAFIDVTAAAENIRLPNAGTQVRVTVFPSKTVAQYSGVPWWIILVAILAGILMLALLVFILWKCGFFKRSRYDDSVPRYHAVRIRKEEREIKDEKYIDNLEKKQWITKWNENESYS

A further test addresses T13, M3.
T13 construct: also called PD1 mutant M3

A further test addresses T14, M11.
T14 construct: also called PD1 mutant M11

The next test concerns the target T15, M5-1.
T15 construct: also called PD1 mutant M5-1

A further test deals with T16, M7-1.
T16 construct: also called PD1 mutant M7-1

For a further test, the target named is T17, M12.
T17 construct: also called PD1 mutant M12

Another test concerns the target T18, M13.
T18 construct: also called PD1 mutant M13

The next test addresses T19, M9.
T19 construct: also called PD1 mutant M9

The target in a further test is T20, M2-2.
T20 construct: also called PD1 mutant M2-2

In test [1] the target is T21, antigen PD1 (coated, construct not stated) (UniProt Q15116 25-170, limits assumed).
T21 construct: also called PD1 antigen; PDCD1

A further test deals with T22, M5.
T22 construct: also called PD1 mutant M5

A further test addresses T23, M1-2.
T23 construct: also called PD1 mutant M1-2

A further test deals with T24, M10.
T24 construct: also called PD1 mutant M10

T21 sequence (Q15116 25-170 limits assumed): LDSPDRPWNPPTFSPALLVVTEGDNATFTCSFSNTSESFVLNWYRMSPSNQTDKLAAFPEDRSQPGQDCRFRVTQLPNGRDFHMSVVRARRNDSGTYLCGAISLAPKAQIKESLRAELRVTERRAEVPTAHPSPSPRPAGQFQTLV

B1: PD1-32A6 (antibody, V domains shown)
VH: QVQLVQSGAEVKKPGSSVKVSCKASGDTFTRNAVSWVRQAPGEGLEWMADIIPIFGSANYAQKFQGRLTLTADVSTSTAYMELSSLRSEDTAVYYCARTIEGAFDIWGQGTMVTVSS
VL: DIQMTQSPSSVSASVGDRVTITCRASQGIVSWLAWYQQKPGKAPRLLIYRASDLETGVPSRFSGSGSGTDFTLTISSLQPEDVATYYCQQADSFPLTFGGGTKVEIK
notes: scFv-phage in the screening ELISA; later whole IgG
For B1, the OD490 in the test with M1 came out at 2.4; in the test with M14, 1.7; with M1-1, 2.6; with M2-1, 2.8; with M5-2, 2.8; in the test with M8, 3.1. Moreover, the OD490 turned out to be 2.4 in the test with M4; 2.9 in the test with M6; 2.8 in the test with M7-2; 3.2 in the test with M7; 3.2 with M2; 0.3 with ITGA6-Fc. Moreover, the OD490 was 3 with M3; 3.3 with M11; 3.6 in the test with M5-1; 3.1 with M7-1; 2.7 with M12; 0.5 with M13. In addition, the OD490 was determined as 2.4 with M9; 2.7 with M2-2; 3.5 in [1]; 2.9 with M5; 2.8 in the test with M1-2; 2.5 in the test with M10.

B2: PD1-29H3 (antibody, V domains shown)
VH: QMQLVESGGNLVQPGRSLRLSCAASGFTFDDYGMHWVRQAPGKGLEWVSSISWNSGTIGYADSVKGRFTISRDNAKNSLYLQMNSLRSEDTAVYYCARLLHQMNEHEFMDVWGQGTTVTVSS
VL: QLVLTQPSSMSEAPGQRVTISCSGGTSNIGTNAVNWYQQPPGKAPTLLIYYDDRLTSGVSDRFSGSKSGTSASLAISRLQSEDEADYYCAAWDDSLNGWVFGGGTKLTVL
notes: as for B1
As for B2, the OD490 with M1 amounted to 1.5; in the test with M14, 3.5; with M1-1, 3.2; with M2-1, 2.8; with M5-2 it was 3.7; with M8 it was 2.2. For the same molecule, the OD490 in the test with M4 worked out at 3.3; with M6 it was 3.5; in the test with M7-2, 3.1; in the test with M7, 1.4; in the test with M2, 0.7; in the test with ITGA6-Fc, 0.3. In addition, the OD490 with M3 worked out at 2.3; with M11, 1; with M5-1, 2; in the test with M7-1, 1.5; with M12, 3; with M13, 3.5. Also, the OD490 with M9 came to 3.4; with M2-2, 3.2; in test [1] it was 3.6; with M5 it was 2; with M1-2, 0.6; with M10 it was 3.

B3: PD1-42G4 (antibody, V domains shown)
VH: QVQLVESGGGLVKPGGSLRLSCAASGFTFSDYYMSWIRQAPGKGLEWVSDISASGNSIYYADSVKRRFTISRDNSKNSLYLQMNSLRAEDTAVYYCVTSGPFGEFRNWGLGTLVTVSS
VL: DIQMTQSPSSLSASVGDRVTTTCRASQGISSYLAWYQQKPGKAPKLLIYAASTLQSGVPSRFSGSGSGTDFTLTISSLQPEDFATYFCQQSYTSPRTFGQGTKLDIK
notes: as for B1
For the molecule B3, the OD490 in the test with M1 came to 1.8; with M14, 3.7; with M1-1, 2.9; with M2-1 it was 0.6; with M5-2 it was 3.5; in the test with M8, 2.1. The OD490 was determined as 1.9 in the test with M4; 3.3 in the test with M6; 2.7 with M7-2; 2.5 in the test with M7; 0.6 in the test with M2; 0.4 with ITGA6-Fc. Also, the OD490 in the test with M3 was 2; with M11 it was 1.7; in the test with M5-1, 1.9; with M7-1 it was 2.8; with M12, 2.7; with M13, 3.7. Further, the OD490 came to 3.4 with M9; 3 in the test with M2-2; 2.8 in test [1]; 1.6 with M5; 0.6 with M1-2; 3.1 with M10.

B4: PD1-31F3 (antibody, V domains shown)
VH: QVQLVQSGAEVKKPGSSVKVSCKASGGTFSSYAISWVRQAPGQGLEWMGGIIPLFSTAHSAQKFQGRVTITADESSSTAYMELSSLRSEDTAVYYCAKHKGLPFDWSPDGFDTWGQGTMVTVSS
VL: QFVLTQPPSVSGAPGQRVIISCTGSSSNIGAGYDVHWYQQLPGTAPKVLIYGNSDRPSGVPDRFSASKSATSASLAITGLQAEDEADYYCQSYDSSLSGYVFGTGTKVTVL
notes: as for B1
On to B4, for which the OD490 was determined as 3 with M1; 3.4 with M14; 3 with M1-1; 3.5 with M2-1; 3.4 with M5-2; 1.7 in the test with M8. Besides, the OD490 with M4 stood at 2.7; with M6, 3.3; with M7-2, 1.5; with M7, 0.7; with M2, 0.7; with ITGA6-Fc it was 0.4. Besides, the OD490 with M3 turned out to be 1.9; with M11, 0.8; in the test with M5-1, 1.3; in the test with M7-1, 0.8; with M12, 2.6; with M13, 3.3. The OD490 in the test with M9 is 3.2; in the test with M2-2, 3.3; in test [1], 2; in the test with M5, 1.1; in the test with M1-2, 3.2; with M10, 3.

The values above are taken from US20190248900A1 (Y BIOLOGICS, published 2019).
